According to patent US20250163168:

Experiment: AC-SINS self-interaction assay; the antibody against itself (N = 2)

Row | Substance | AC-SINS (wavelength of maximum absorbance relative to blank, nm)
1 | negative control (polyreactivity assays) | 0 nm
2 | positive control (polyreactivity assays) | 23.5 nm
